Assay results as given in patent publication US9200265B2, “Anti-cocaine compositions and treatment” (priority 2006, dated 2015).
Read-outs that look alike come from different tables or passages of the source.

Columns and labels:
[1] = cocaethylene; cited from earlier work
[2] = Low-UV CD spectra melt with CCA deconvolution; assay type: physicochemical; settings: for #3 formation: accumulation of the fully melted protein; for #1 melt: initial spectra melts, 0.2 mg/ml; for #2 melt: melt of the intermediate state
Procedure: Low-UV CD spectra data were obtained using an Aviv Spectropolarimeter Mode 400, with the help of Norma Greenfield, UMDNJ, using a 5-cell holder and 0.2 mg/ml protein concentrations. Raw data values obtained were blanked on control PBS, smoothed, and deconvoluted using the CCA algorithm as described by A. Perczel, K. Park, and G. D. Fasman, [Analysis of the circular dichroism spectrum of proteins using the convex constraint algorithm: a practical guide. Analytical Biochemistry 203, 83-93 (1992).] This algorithm finds the minimum number of curves needed to reconstruct a data set, and expresses the percentage each curve contributes to the data set as a function of temperature.
Below is presented a low UV CCA denconvolution analysis of CocE WT and 4 mutants, obtained in a single CD spectra melt using a 5-cell holder. The experiment was performed over the period of 8 hours, from 0-80° C.
Temperature dependent melting was observed between the wavelengths tested (200-250 nm), and the smoothed spectra for each mutant are shown in FIG. 29. […] Dose response analysis was used to approximate the temperature at which the initial spectra melts (1), the formation and melt of the intermediate state (2), and the accumulation of the fully melted protein (3).

[3] = Cocaine spectrophotometric assay (240 nm), Michaelis-Menten kinetics
[4] = Ex vivo cocaine degradation by CocE in human plasma (HPLC tandem MS)
[5] = Time-dependent inactivation of CocE in vitro (incubation at temperature, then activity)
Procedure: For time-dependent inactivation of CocE in vitro, purified CocE enzyme (at 250 ng/ml) was incubated in assay buffer in the absence of cocaine at 37° C. for various times. Following incubation at 37° C. the samples were placed on ice. To assess the effect of temperature on CocE activity, samples were incubated with (−) cocaine at various concentrations as indicated at a final enzyme concentration of 125 ng/ml. The rate of decay of (−)-cocaine at A240 was measured on a multiplate reader.

CocE antibodies = experiment: Direct ELISA specific for CocE antibodies in serum of mice; assay type: in vivo, mouse
Procedure: CocE can be used in incomplete Freund's adjuvant (IFA) to immunize mice (see Table 4). A direct ELISA specific for CocE antibodies was set up by a standard protocol. CocE was used (1 ug/ml) to coat a 96-well micro-titer plate using a borate buffered saline (1.5 M NaCl, 0.5 M H3BO3, 1.0 M NaOH) to resuspend the cocaine esterase (50 uL/well). The coating plates was left overnight at 4 C. The coating buffer was removed the following morning and the plates blocked with 2% normal goat serum in PBS for 1 hr at 37 C and washed 3 times. Serum from the various groups of mice was serially diluted in 50 μL of PBS in the wells in a range of 10^2 to […] and run in duplicate. The plates were covered and incubated for 30 minutes at 37 C. Subsequently, the plates were washed 3 times and 50 μL/well of Goat anti-mouse IgG peroxidase labeled antibody diluted 1:400. The plates were then washed 3 times and 100 μL peroxidase substrate solution (OPD dissolved in citratelphosphate buffer) was added to each well. After a 5-10 minute incubation (based upon color development in the positive controls) the reaction was stopped using 3M H2SO4 (50 μL/well). […] Positive controls were derived by immunizing Balb/c mice with 100 μg in 100 μL of Cocaine esterase emulsified in incomplete Freund's adjuvant […] by intraperitoneal (IP) injection. In Positive 1 group the serum was isolated from 2 week immunized mice. In Positive 2 group immunized mice were boosted using 100 μg in 100 μL by IP injection at 2 weeks post-primary immunization and the serum collected after an additional week (3 week post-primary).

[6] = Half-life of CocE in rat plasma; assay type: in vitro ADME
Procedure: CocE's protective effects were eliminated when rats were treated 100 min prior to cocaine. This time-dependent effect is most likely due to the thermal deactivation of the enzyme in vivo.

[7] = cited from earlier work
[8] = Thermal stability: preincubation at 37° C., activity measured at RT (25° C.); assay type: physicochemical; settings: wild type
Procedure: Thermally stable mutant CocE polypeptides were identified by determining 1/2 of the mutant CocE polypeptides. Briefly, enzymes were preincubated at 37° C. for varying times. Activity measurements were determined at RT (25° C.). Mutant enzymes with 1/2 of greater than 12 minutes (the 1/2 of wild type CocE) were considered thermally stable (See, e.g., FIG. 27 and Table 7).

[9] = purified wild-type, cocaine, PBS pH 7.4

B1: CocE: wild-type cocaine esterase of Rhodococcus sp. MB 1, SEQ ID NO: 1, Accession No. AF173165 (protein)
chain: MVDGNYSVASNVMVPMRDGVRLAVDLYRPDADGPVPVLLVRNPYDKFDVFAWSTQSTNWLEFVRDGYAVVIQDTRGLFASEGEFVPHVDDEADAEDTLSWILEQAWCDGNVGMFGVSYLGVTQWQAAVSGVGGLKAIAPSMASADLYRAPWYGPGGALSVEALLGWSALIGTGLITSRSDARPEDAADFVQLAAILNDVAGAASVTPLAEQPLLGRLIPWVIDQVVDHPDNDESWQSISLFERLGGLATPALITAGWYDGFVGESLRTFVAVKDNADARLVVGPWSHSNLTGRNADRKFGIAATYPIQEATTMHKAFFDRHLRGETDALAGVPKVRLFVMGIDEWRDETDWPLPDTAYTPFYLGGSGAANTSTGGGTLSTSISGTESADTYLYDPADPVPSLGGTLLFHNGDNGPADQRPIHDRDDVLCYSTEVLTDPVEVTGTVSARLFVSSSAVDTDFTAKLVDVFPDGRAIALCDGIVRMRYRETLVNPTLIEAGEIYEVAIDMLATSNVFLPGHRIMVQVSSSNFPKYDRNSNTGGVIAREQLEEMCTAVNRIHRGPEHPSHIVLPIIKR
modifications: Rhodococcus sp. MB1
- Kcat [1]: 9.4 s⁻¹
- Km [1]: 1.6 µM
- #3 formation [2]: 59 °C
- #3 formation ([2]; listed as WT): 59.86 °C
- #2 formation ([2]; formation of the intermediate state): 34.57 °C
- #1 melt [2]: 37 °C
- #1 melt ([2]; listed as WT): 37.04 °C
- #2 melt [2]: 50 °C
- #2 melt ([2]; listed as WT): 50.98 °C
- Km ([3]; 40 min @ 37° C.): 12.3 µM
- Km ([3]; no preincubation): 71.8 µM
- Kcat [3, 9]: approx. 500 min^−1
- Km [3, 9]: ~2 µM
- decrease of cocaine levels compared with vehicle-treated plasma ([4]; human plasma 37° C., 300 μM cocaine, 0.05 mg/ml CocE, within 1 min): at least 100 fold
- cocaine level after esterase ([4]; human plasma 37° C., 300 μM cocaine, 2-minute timepoint): below 1 microM
- cocaine concentration after esterase ([4]; human plasma 37° C., 300 μM cocaine, within 1 min): approximately 2 μM
- cocaine concentrations in serum metabolized ([4]; in less than one minute (FIG. 15)): 150 fold
- t1/2 of CocE ([5]; at 4° C.): greater than 6 months
- t1/2 of CocE ([5]; at 37° C.): approximately 15 minutes
- Titer (log10 dilution +/− SE) (CocE antibodies; Challenged and Treated (3x), CocE given with cocaine): 3.33 +/− 0.333
- Titer (log10 dilution +/− SE) (CocE antibodies; Challenged and Treated (4x), CocE given with cocaine): 3.5 +/− 0.5
- antibody titers (CocE antibodies; CocE i.v. during cocaine challenges): detectable but relatively low titers
- antibody titer (CocE antibodies; CocE/IFA with an additional boost): 10^6
- Titer (log10 dilution +/− SE) (CocE antibodies; Positive 1 (n = 3) 2 weeks, Immunized (IFA/IP)): 5
- Titer (log10 dilution +/− SE) (CocE antibodies; Positive 2 (n = 3) 3 weeks, Immunized/Boost (IFA/IP)): 6
- antibody titer (CocE antibodies; immunized once with CocE/IFA): 10^5
- half-life [6]: about 10 minutes
- Kcat ([7]; against (-) cocaine): 7.8 s⁻¹
- Km ([7]; against (-) cocaine): 0.64 µM
- Km ([7]; purified enzyme, cocaine): 0.64 µM
- kcal (Michaelis-Menten kinetics) ([7]; purified enzyme, cocaine): 7.2 s⁻¹
- 1/2 (t1/2) at 37° C. [8]: 12 min
